The values below come from article PMC8389370, “pUL21 is a viral phosphatase adaptor that promotes herpes simplex virus replication and spread” (PLoS Pathogens, 2021).

In the test the target is T1, StrepII-CERT (human, UniProt Q9Y5P4-2 1-598, predominantly hyperphosphorylated (CERT^P); sites not given).
T1 construct: human CERT, UniProt Q9Y5P4-2, codon-optimised synthetic gene in pcDNA-SW; also called Strep-CERT; CERT^P; source: Freestyle 293F cells, transfected, purified (StrepTrap HP, SEC); not shown: StrepII-tag, N-terminal, kept
T1 sequence (looked up): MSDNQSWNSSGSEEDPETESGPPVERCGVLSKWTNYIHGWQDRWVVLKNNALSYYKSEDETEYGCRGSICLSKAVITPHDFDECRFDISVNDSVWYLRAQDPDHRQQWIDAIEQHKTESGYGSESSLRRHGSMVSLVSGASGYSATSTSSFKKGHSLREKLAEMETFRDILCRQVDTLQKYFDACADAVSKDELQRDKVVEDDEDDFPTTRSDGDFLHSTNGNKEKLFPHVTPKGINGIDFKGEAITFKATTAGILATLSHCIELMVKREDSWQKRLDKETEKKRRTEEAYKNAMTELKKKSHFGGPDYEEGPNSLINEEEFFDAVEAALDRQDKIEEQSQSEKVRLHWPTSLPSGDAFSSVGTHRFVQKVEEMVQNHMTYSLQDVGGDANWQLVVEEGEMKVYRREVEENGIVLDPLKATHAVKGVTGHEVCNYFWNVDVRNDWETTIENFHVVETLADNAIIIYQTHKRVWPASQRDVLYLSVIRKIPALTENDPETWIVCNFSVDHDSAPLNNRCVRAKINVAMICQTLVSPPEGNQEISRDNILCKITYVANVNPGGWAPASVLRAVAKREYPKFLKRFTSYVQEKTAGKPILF
Nature of the test: pull-down; pUL21-GST (1 μM) on glutathione magnetic beads, 5 μM purified prey, 60 min at room temperature, 20 mM Tris pH 8.5, 200 mM NaCl, 0.1% NP-40, 1 mM DTT, 1 mM EDTA; eluted with glutathione, Coomassie SDS-PAGE. The note with it: both partners purified.

B1: pUL21-GST (natural protein)
chain: MELSYATTMHYRDVVFYVTTDRNRAYFVCGGCVYSVGRPCASQPGEIAKFGLVVRGTGPDDRVVANYVRSELRQRGLQDVRPIGEDEVFLDSVCLLNPNVSSELDVINTNDVEVLDECLAEYCTSLRTSPGVLISGLRVRAQDRIIELFEHPTIVNVSSHFVYTPSPYVFALAQAHLPRLPSSLEALVSGLFDGIPAPRQPLDAHNPRTDVVITGRRAPRPIAGSGAGSGGAGAKRATVSEFVQVKHIDRVGPAGVSPAPPPNNTDSSSLVPGAQDSAPPGPTLRELWWVFYAADRALEEPRADSGLTREEVRAVRGFREQAWKLFGSAGAPRAFIGAALGLSPLQKLAVYYYIIHRERRLSPFPALVRLVGRYTQRHGLYVPRPDDPVLADAINGLFRDALAAGTTAEQLLMFDLLPPKDVPVGSDVQADSTALLRFIESQRLAVPGGVISPEHVAYLGAFLSVLYAGRGRMSAATHTARLTGVTSLVLAVGDVDRLSAFDRGAAGAASRTRAAGYLDVLLTVRLARSQHGQSV
notes: HSV-1 strain KOS pUL21, UniProt F8RG07; the plasmid for the GST fusion is not described; also called Purified recombinant pUL21-GST; source: E. coli T7 Express lysY/Iq, purified (glutathione Sepharose 4B, SEC)
As to B1, the binding result is recorded as “binds”.
